In publication PMC11219949:

Legend:
[1] = target: Recombinant His-tagged AUREO1c protein (Phaeodactylum tricornutum aureochrome 1c) (Phaeodactylum tricornutum); assay: native MS; UHPLC-native MS (Waters BEH SEC column, 100 mM ammonium acetate, room temperature); 5 uM protein in PBS incubated under blue light (200 umol photons m^-2 s^-1) for 60 min, then cross-linked with 5 uM BS3 and quenched with Tris
[2] = target: Recombinant His-tagged AUREO1c protein (Phaeodactylum tricornutum aureochrome 1c) (Phaeodactylum tricornutum); assay: native MS; UHPLC-native MS (Waters BEH SEC column, 100 mM ammonium acetate, room temperature); 5 uM protein in PBS incubated in the dark for 60 min, then cross-linked with 5 uM BS3 and quenched with Tris

stoichiometry N [1]: 2
stoichiometry N [2]: 2
Substance: Recombinant His-tagged AUREO1c protein (Phaeodactylum tricornutum aureochrome 1c) (natural protein)
